In paper PMC5686351, “Tudor-domain protein PHF20L1 reads lysine methylated retinoblastoma tumour suppressor protein” (Cell Death and Differentiation, 2017):
Where no end group is shown, it is not given here. The star is where a group is joined. Biotin = O=C1N[C@H]2[C@H](CS[C@H]2CCCCC(=O)*)N1

B1: RbK810me1 peptide (biotin-GNIYISPLK[me]SPYKISEG) (peptide)
peptide: Biotin-GNIYISPLK(Me)SPYKISEG
notes: retinoblastoma protein (pRb), stretch around K810, K810 mono-methylated; also called mono-methylated K810 pRb peptide; biotinylated RbK810me1; source: synthetic peptide

Legend:
His-PHF20L1 tudor 1 = target: T1, His-PHF20L1 tudor 1 (UniProt A8MW92 11-71); assay: BLI; peptides immobilised; His-PHF20L1 tudor 1 or full-length His-PHF20L1 in seven 2.5-fold dilutions from 200 μM; 250 s association, 250 s dissociation; conditions: both partners purified
T1 construct: PHD-finger protein 20-like 1 (PHF20L1), tudor 1 domain; the GST construct of tudor 1 is 1-74; also called pET28a-PHF20L1 tudor 1; source: E. coli BL21 (DE3), purified
T1 sequence (looked up): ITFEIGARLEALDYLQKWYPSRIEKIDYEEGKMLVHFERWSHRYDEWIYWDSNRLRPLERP

[1] = target: B1; assay: as above; conditions: both partners purified

Question: B1 was tested. Which Kd (His-PHF20L1 tudor 1) did it give?
Answer: 28 µM

B2: His-PHF20L1 (full length) (natural protein)
chain: MSKKPPNRPGITFEIGARLEALDYLQKWYPSRIEKIDYEEGKMLVHFERWSHRYDEWIYWDSNRLRPLERPALRKEGLKDEEDFFDFKAGEEVLARWTDCRYYPAKIEAINKEGTFTVQFYDGVIRCLKRMHIKAMPEDAKGQFLFQVKSQHPLSWCCPIDPAGSCNQSMGSEDWIALVKAAAAAAAKNKTGSKPRTSANSNKDKDKDERKWFKVPSKKEETSTCIATPDVEKKEDLPTSSETFVGLHVENVPKMVFPQPESTLSNKRKNNQGNSFQAKRARLNKITGLLASKAVGVDGAEKKEDYNETAPMLEQV
Question: For B2, which Kd [1] is on record?
Answer: 34 µM
